# Assay results taken from IntAct's records for PubMed 15086532.
# Target: gasp1_human GPRASP1 (UniProt Q5JY77)
# Sequence (Q5JY77 whole entry): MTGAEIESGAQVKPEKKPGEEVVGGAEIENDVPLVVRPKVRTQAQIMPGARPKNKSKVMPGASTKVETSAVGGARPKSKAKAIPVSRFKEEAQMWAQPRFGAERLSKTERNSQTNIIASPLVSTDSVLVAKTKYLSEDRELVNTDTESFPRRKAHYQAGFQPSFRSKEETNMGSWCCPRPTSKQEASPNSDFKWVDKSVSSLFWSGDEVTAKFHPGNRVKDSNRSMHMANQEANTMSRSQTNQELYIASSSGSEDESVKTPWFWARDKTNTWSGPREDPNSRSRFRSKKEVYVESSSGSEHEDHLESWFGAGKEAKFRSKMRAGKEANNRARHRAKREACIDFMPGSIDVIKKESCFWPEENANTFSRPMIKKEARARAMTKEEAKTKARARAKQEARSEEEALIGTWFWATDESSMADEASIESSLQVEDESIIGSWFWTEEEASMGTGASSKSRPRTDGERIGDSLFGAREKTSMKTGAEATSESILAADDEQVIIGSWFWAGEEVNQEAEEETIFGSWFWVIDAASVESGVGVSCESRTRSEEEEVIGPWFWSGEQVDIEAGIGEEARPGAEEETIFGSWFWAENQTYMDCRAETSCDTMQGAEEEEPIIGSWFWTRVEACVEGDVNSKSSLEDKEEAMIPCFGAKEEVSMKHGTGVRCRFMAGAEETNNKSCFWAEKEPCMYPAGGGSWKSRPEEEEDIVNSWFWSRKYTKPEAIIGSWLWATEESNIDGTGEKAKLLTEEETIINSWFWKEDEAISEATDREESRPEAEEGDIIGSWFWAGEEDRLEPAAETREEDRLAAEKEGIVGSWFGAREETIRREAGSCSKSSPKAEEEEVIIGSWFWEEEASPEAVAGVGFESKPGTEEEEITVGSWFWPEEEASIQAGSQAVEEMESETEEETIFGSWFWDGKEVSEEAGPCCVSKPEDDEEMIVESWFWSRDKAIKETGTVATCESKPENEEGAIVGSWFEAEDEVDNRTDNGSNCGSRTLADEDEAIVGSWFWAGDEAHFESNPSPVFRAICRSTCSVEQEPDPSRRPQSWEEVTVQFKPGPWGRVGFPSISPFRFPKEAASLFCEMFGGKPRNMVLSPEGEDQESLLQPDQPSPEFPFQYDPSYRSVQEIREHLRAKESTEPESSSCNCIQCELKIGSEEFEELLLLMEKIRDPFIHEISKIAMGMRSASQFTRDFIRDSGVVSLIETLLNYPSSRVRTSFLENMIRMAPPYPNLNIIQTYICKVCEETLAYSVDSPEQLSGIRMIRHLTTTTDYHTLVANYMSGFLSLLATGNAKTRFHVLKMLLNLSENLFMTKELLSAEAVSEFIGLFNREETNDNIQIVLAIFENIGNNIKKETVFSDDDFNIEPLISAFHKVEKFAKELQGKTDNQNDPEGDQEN
# Chain of Beta-1 adrenergic receptor (Homo sapiens), P08588 F383A;R384A (P08588 whole entry F383A/R384A): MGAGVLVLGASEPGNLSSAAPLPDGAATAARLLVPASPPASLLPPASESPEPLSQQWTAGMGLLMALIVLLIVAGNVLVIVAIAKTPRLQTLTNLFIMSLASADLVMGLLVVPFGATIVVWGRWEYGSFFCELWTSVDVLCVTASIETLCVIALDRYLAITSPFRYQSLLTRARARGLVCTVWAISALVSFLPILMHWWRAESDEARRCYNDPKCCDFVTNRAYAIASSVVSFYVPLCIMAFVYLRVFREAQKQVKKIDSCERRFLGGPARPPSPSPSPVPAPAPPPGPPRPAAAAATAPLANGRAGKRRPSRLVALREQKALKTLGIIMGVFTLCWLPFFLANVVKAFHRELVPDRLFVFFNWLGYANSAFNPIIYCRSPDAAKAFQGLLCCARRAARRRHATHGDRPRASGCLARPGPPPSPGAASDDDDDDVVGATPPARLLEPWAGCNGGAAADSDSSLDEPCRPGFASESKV
substance,measurement,value
"Beta-1 adrenergic receptor (Homo sapiens), P08588 F383A;R384A",effect of a mutation on the interaction,decreasing interaction
